The source of these data is paper PMC7684302, “A novel Schmallenberg virus subunit vaccine candidate protects IFNAR^-/- mice against virulent SBV challenge” (Scientific Reports, 2020).

The data set concerns the molecule itself. In words: SEC; HiLoad 16/60 Superdex 200 pg column in 1X PBS, after Ni-NTA. (SEC sorts molecules by how far they enter the pores of the column.)

B1: Schmallenberg virus nucleoprotein (natural protein)
chain: MSSQFIFEDVPQRNAATFNPEVGYVAFIGKYGQQLNFGVARVFFLNQKKAKMVLHKTAQPSVDLTFGGVKFTVVNNHFPQYVSNPVPDNAITLHRMSGYLARWIADTCKASVLKLAEASAQIVMPLAEVKGCTWADGYTMYLGFAPGAEMFLDAFDFYPLVIEMHRVLKDNMDVNFMKKVLRQRYGTMTAEEWMTQKITEIKAAFNSVGQLAWAKSGFSPAARTFLQQFGINI
notes: Nucleoprotein (N) of Schmallenberg virus, encoded on the S segment; cDNA ligated through AgeI/XhoI into pET-28M-SUMO3 in place of GFP; also called SBV-N; SBV N; source: E. coli BL21, purified (Ni-NTA, SEC)
Take B1: the binding result is on record as “binds”.
